From PMC12022753, “Mechanism of Cas9 inhibition by AcrIIA11”

Tests used:
[1] = molecular target: dSaCas9 (nuclease-dead SaCas9);AcrIIA11 D10A;N580A (Staphylococcus aureus;) (UniProt J7RUA5); assay: EMSA; details: 100 mM KCl, 5 mM MgCl2, 1 mM DTT, 37 C, sgRNA EMSA: 20 mM Tris-HCl pH 8, 5% glycerol, 1 mM NaCl
[2] = molecular target: SaCas9;AcrIIA11 (Staphylococcus aureus;) (UniProt J7RUA5); assay: single-molecule DNA curtains; details: 100 mM KCl, 5 mM MgCl2, 1 mM DTT, 37 C, sgRNA EMSA: 20 mM Tris-HCl pH 8, 5% glycerol, 1 mM NaCl
SaCas9 [3] = molecular target: T1, SaCas9 (Staphylococcus aureus, UniProt J7RUA5 1-1053); assay: single-molecule DNA curtains; details: EMSA: 20 mM Tris-HCl pH 8, 5% glycerol, 100 mM KCl, 5 mM MgCl2, 1 mM DTT, 37 C, 1 mM NaCl
T1 sequence: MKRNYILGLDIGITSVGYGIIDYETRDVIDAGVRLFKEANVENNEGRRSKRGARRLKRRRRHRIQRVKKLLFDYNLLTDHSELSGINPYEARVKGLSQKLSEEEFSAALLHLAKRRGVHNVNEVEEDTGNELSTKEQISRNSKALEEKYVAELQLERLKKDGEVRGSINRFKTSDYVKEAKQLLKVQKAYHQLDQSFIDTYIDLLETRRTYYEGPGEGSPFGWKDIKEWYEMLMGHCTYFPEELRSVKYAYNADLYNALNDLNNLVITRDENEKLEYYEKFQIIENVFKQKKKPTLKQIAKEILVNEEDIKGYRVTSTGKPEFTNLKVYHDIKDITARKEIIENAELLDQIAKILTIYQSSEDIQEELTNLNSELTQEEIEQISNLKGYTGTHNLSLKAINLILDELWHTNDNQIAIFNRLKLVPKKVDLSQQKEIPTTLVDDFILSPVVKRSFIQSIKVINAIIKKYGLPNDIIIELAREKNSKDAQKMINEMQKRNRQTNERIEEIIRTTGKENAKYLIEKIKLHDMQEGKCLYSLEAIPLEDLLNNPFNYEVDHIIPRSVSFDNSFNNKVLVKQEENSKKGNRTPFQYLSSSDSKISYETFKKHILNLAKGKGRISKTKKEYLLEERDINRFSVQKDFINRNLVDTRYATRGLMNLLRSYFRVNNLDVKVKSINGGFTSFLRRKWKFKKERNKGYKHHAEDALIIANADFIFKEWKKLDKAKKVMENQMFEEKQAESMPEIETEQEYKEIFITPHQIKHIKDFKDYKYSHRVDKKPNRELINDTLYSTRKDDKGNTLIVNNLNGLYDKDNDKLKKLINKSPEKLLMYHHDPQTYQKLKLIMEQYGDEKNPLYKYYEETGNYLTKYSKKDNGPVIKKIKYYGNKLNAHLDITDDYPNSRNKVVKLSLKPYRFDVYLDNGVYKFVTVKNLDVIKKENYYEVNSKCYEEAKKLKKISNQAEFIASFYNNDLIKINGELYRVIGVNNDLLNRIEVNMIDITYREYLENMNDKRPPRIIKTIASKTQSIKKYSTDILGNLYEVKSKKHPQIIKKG

SaCas9 [4] = molecular target: T1, SaCas9; assay: EMSA; RNP preformed with 490 nM SaCas9; EMSA: 20 mM Tris-HCl pH 8, 5% glycerol, 100 mM KCl, 5 mM MgCl2, 1 mM DTT, 37 C; sgRNA EMSA: 20 mM Tris-HCl pH 8, 5% glycerol, 1 mM NaCl, 1 mM DTT, 37 C; curtains (dSaCas9): 40 mM Tris-HCl pH 8, 2 mM MgCl2, 100 mM NaCl, 1 mM DTT, 0.2 mg/ml BSA; details: protein: recombinant, tags: N-terminal 3xFLAG, 6xHis-TwinStrep-SUMO removed, label: 5'-32P
AcrIIA11-6xHis = assay: negative-stain electron microscopy; SaCas9 RNP mixed with ~2-fold excess of AcrIIA11-6xHis, passed over Superose 6 (peak eluted at a higher molecular weight than SaCas9 RNP); 200 mM NaCl, 25 mM HEPES pH 7.5, 5% glycerol, 2 mM DTT; low-resolution 3D reconstruction from 16 761 particles with the SaCas9 RNP crystal structure docked

Work on “AAGAACGCCTCGCACACTCTTTTGACTTGATCGGCACGTAAGAGGTTCCAACTTTCACCATAATGAAATAAGATCACTACTTGGGTTATTTTTTGAGTTATCGAGATTTTCAGACTCTGTTATTCGGCGGTT (double strand) [SMART PCR DNA with noncomplementary sgRNA]” yielded a binding signal ([1]; 2 uM AcrIIA11, noncomplementary, EMSA: 20 mM Tris-HCl pH 8, 5% glycerol) of 32 % DNA bound.

“lambda DNA with scrambled sgRNA (no target)” was tested, and the binding signal ([2]; scrambled sgRNA, AcrIIA11, EMSA: 20 mM Tris-HCl pH 8, 5% glycerol) was 98 s (lifetime) and the binding signal (s (half-dissociation lifetime)) (SaCas9 [3]; scrambled sgRNA) was 61.

“TTTGGGTATTGGGTATTGGGTTTTGGGTTTGGGTTATTTT (double strand) [5x strong PAM DNA (KD201/KD202), nontarget]” showed a binding signal ([1]; 25 nM dSaCas9 and sgRNA, 5 uM AcrIIA11, EMSA: 20 mM Tris-HCl pH 8, 5% glycerol) of 90 % DNA bound.

“48.5 kb DNA (lambda) with 29.4 kb-target sgRNA” showed a binding signal (% of molecules at target within 90 s) ([2]; EMSA: 20 mM Tris-HCl pH 8, 5% glycerol) of 12 and a binding signal (% of molecules at target within 90 s) (SaCas9 [3]; sgRNA EMSA: 20 mM Tris-HCl pH 8, 5% glycerol) of 43.

B1: SaCas9 SMART target sgRNA (structured_RNA)
RNA: UAAUGAAAUAAGAUCACUACGUUUUAGUACUCUGGAAACAGAAUCUACUAAAACAAGGCAAAAUGCCGUGUUUAUCUCGUCAACUUGUUGGCGAGAU
B1: binds (SaCas9 [4]).

B2: SaCas9 RNP from TS-SUMO-SaCas9-sgRNA (enzyme)
chain: T1 sequence
Molecule B2 has a stoichiometry N (AcrIIA11-6xHis) of 1.
